Test [1] concerns the target T1, human melanocortin 4 receptor (human, UniProt P32245 1-332).
T1 construct: whole, on cells; cAMP assay on whole BHK cells; also called MC4R; human MC4 receptor
Nature of the test: competition with 125-NDP-α-MSH, BHK human MC4R membranes. In outline:
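Competition binding used membranes from BHK cells stably expressing human MC4R with ¹²⁵I-NDP-α-MSH (apx. […] final), compound at 1 μM–0.001 nM. Incubation was 2 h at 25 °C in HEPES pH 7.0 buffer with CaCl₂, MgSO₄, EGTA, Tween 20 and 0.1% HSA or ovalbumin. Filter-bound radioactivity was fitted by non-linear regression.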

In test [2] the target is T1, human melanocortin 4 receptor. Nature of the test: cell-based or functional assay.
Test [3] has as its target human melanocortin 1 receptor (human, UniProt Q01726 1-317). Description: cell-based or functional assay.

Positions of bridges follow the written chain, without caps; N, C: chain ends. Non-standard residues stand in square brackets, D forms with d. Hyp = O=C(O)[C@@H]1C[C@@H](O)CN1; Orn = NCCC[C@H](N)C(=O)O; Thz = O=C(O)[C@@H]1CSCN1; Dab = NCC[C@H](N)C(=O)O

T1 sequence (P32245 whole entry): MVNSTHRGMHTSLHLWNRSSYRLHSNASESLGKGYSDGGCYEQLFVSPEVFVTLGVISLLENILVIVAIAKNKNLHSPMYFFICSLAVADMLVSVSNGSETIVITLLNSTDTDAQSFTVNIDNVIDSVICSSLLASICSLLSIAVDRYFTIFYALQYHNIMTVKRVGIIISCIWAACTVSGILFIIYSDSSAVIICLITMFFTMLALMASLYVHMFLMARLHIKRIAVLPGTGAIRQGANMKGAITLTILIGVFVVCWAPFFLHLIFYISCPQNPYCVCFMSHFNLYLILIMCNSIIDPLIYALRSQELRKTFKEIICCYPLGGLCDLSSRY
Sequence of human melanocortin 1 receptor (Q01726 whole entry): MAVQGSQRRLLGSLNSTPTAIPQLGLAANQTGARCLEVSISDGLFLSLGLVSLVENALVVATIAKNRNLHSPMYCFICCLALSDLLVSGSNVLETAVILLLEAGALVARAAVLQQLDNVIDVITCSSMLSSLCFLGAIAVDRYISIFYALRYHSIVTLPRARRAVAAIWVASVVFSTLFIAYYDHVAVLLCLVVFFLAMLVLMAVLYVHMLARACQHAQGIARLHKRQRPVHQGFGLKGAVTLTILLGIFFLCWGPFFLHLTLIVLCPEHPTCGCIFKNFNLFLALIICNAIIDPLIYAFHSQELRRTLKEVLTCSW

B1: Chem. 2 (peptide)
peptide: cyclo(CGH[dF]RWCGH[dF]RW)
modifications: disulfide 1-7
SMILES: N=C(N)NCCC[C@@H]1NC(=O)[C@@H](Cc2ccccc2)NC(=O)[C@H](Cc2c[nH]cn2)NC(=O)CNC(=O)[C@@H]2CSSC[C@H](NC(=O)[C@H](Cc3c[nH]c4ccccc34)NC1=O)C(=O)NCC(=O)N[C@@H](Cc1c[nH]cn1)C(=O)N[C@H](Cc1ccccc1)C(=O)N[C@@H](CCCNC(=N)N)C(=O)N[C@@H](Cc1c[nH]c3ccccc13)C(=O)N2
notes: also called c[c[Cys-Gly-His-D-Phe-Arg-Trp-Cys]-Gly-His-D-Phe-Arg-Trp]
Take B1: the Ki in test [1] worked out at 0.07 nM. For the same molecule, the “MC4R cAMP EC50” value in test [2] is 0.01 nM. Also, the “MC1R cAMP EC50” value in test [3] was found to be 1.54 nM.

B2: Chem. 16 (peptide)
peptide: cyclo(CAH[dF][Orn]WCAH[dF][Orn]W)
modifications: disulfide 1-7
SMILES: C[C@@H]1NC(=O)[C@@H]2CSSC[C@H](NC(=O)[C@H](Cc3c[nH]c4ccccc34)NC(=O)[C@H](CCCN)NC(=O)[C@@H](Cc3ccccc3)NC(=O)[C@H](Cc3c[nH]cn3)NC1=O)C(=O)N[C@@H](C)C(=O)N[C@@H](Cc1c[nH]cn1)C(=O)N[C@H](Cc1ccccc1)C(=O)N[C@@H](CCCN)C(=O)N[C@@H](Cc1c[nH]c3ccccc13)C(=O)N2
notes: also called c[c[Cys-Ala-His-D-Phe-Orn-Trp-Cys]-Ala-His-D-Phe-Orn-Trp]
B2 showed a Ki in test [1] of 0.34 nM. In addition, the “MC4R cAMP EC50” value in test [2] amounted to 0.21 nM. In test [3], the “MC1R cAMP EC50” value was > 1 nM.

B3: Chem. 108 (peptide)
peptide: cyclo(C[Thz]H[dF]HWCAEDAW)
modifications: disulfide 1-7
SMILES: C[C@@H]1NC(=O)[C@H](CC(=O)O)NC(=O)[C@H](CCC(=O)O)NC(=O)[C@H](C)NC(=O)[C@@H]2CSSC[C@H](NC(=O)[C@H](Cc3c[nH]c4ccccc34)NC1=O)C(=O)N1CSC[C@H]1C(=O)N[C@@H](Cc1c[nH]cn1)C(=O)N[C@H](Cc1ccccc1)C(=O)N[C@@H](Cc1c[nH]cn1)C(=O)N[C@@H](Cc1c[nH]c3ccccc13)C(=O)N2
notes: also called c[c[Cys-THAZ-His-D-Phe-His-Trp-Cys]-Ala-Glu-Asp-Ala-Trp]
B3: the Ki in test [1] is 23.3 nM. Moreover, the “MC4R cAMP EC50” value in test [2] turned out to be 2.52 nM. Moreover, the “MC1R cAMP EC50” value in test [3] was > 100 nM.

B4: Chem. 17 (peptide)
peptide: cyclo(CAH[dF][Dab]WCAH[dF][Dab]W)
modifications: disulfide 1-7
SMILES: C[C@@H]1NC(=O)[C@@H]2CSSC[C@H](NC(=O)[C@H](Cc3c[nH]c4ccccc34)NC(=O)[C@H](CCN)NC(=O)[C@@H](Cc3ccccc3)NC(=O)[C@H](Cc3c[nH]cn3)NC1=O)C(=O)N[C@@H](C)C(=O)N[C@@H](Cc1c[nH]cn1)C(=O)N[C@H](Cc1ccccc1)C(=O)N[C@@H](CCN)C(=O)N[C@@H](Cc1c[nH]c3ccccc13)C(=O)N2
notes: also called c[c[Cys-Ala-His-D-Phe-Dab-Trp-Cys]-Ala-His-D-Phe-Dab-Trp]
In test [1], B4 gave a Ki of 0.83 nM. The “MC4R cAMP EC50” value in test [2] came to 0.36 nM. Moreover, in test [3], the “MC1R cAMP EC50” value amounted to 104 nM.

B5: Chem. 15 (peptide)
peptide: cyclo(CAH[dF]KWCAH[dF]KW)
modifications: disulfide 1-7
SMILES: C[C@@H]1NC(=O)[C@@H]2CSSC[C@H](NC(=O)[C@H](Cc3c[nH]c4ccccc34)NC(=O)[C@H](CCCCN)NC(=O)[C@@H](Cc3ccccc3)NC(=O)[C@H](Cc3c[nH]cn3)NC1=O)C(=O)N[C@@H](C)C(=O)N[C@@H](Cc1c[nH]cn1)C(=O)N[C@H](Cc1ccccc1)C(=O)N[C@@H](CCCCN)C(=O)N[C@@H](Cc1c[nH]c3ccccc13)C(=O)N2
notes: also called c[c[Cys-Ala-His-D-Phe-Lys-Trp-Cys]-Ala-His-D-Phe-Lys-Trp]
Consider B5, for which the Ki in test [1] came to 0.12 nM. Moreover, in test [2], the “MC4R cAMP EC50” value was 0.09 nM. In addition, in test [3], the “MC1R cAMP EC50” value amounted to 5.43 nM.

B6: Chem. 14 (peptide)
peptide: cyclo(CA[Hyp][dF]RWCA[Hyp][dF]RW)
modifications: disulfide 1-7
SMILES: C[C@@H]1NC(=O)[C@@H]2CSSC[C@H](NC(=O)[C@H](Cc3c[nH]c4ccccc34)NC(=O)[C@H](CCCNC(=N)N)NC(=O)[C@@H](Cc3ccccc3)NC(=O)[C@@H]3C[C@@H](O)CN3C1=O)C(=O)N[C@@H](C)C(=O)N1C[C@H](O)C[C@H]1C(=O)N[C@H](Cc1ccccc1)C(=O)N[C@@H](CCCNC(=N)N)C(=O)N[C@@H](Cc1c[nH]c3ccccc13)C(=O)N2
notes: also called c[c[Cys-Ala-Hyp-D-Phe-Arg-Trp-Cys]-Ala-Hyp-D-Phe-Arg-Trp]
With B6, the affinity in test [1], expressed as Ki, was 30.2 nM. Besides, in test [2], the “MC4R cAMP EC50” value is 3.55 nM. For the same molecule, the “MC1R cAMP EC50” value in test [3] is > 10 nM.

The values above are taken from patent US20200223889A1 (Novo Nordisk, published 2020).
